± gives the standard deviation of the averaged measurements.
System: ATP
Assay: switch fluorescence ratio, 500 uM ATP over buffer (Cy3 cluster intensity, sum of 5 cycles each) (fold (ratio)); higher = stronger signal-on switching upon ATP binding; sequences stand for … in TCGTCGGCAGCGTCAGATGTGTATAAGAGACAGTTTTTTTTTTTTTTTTTTTTTTTTT…TC
Conditions: aptamer strand: ATP DNA aptamer (quencher-CACCTGGGGGAGTATTGCGGAGGAAGG + anchor), 100 nM annealed; ATP concentration: 500 uM
Procedure, shortened: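 Cy3-labelled switching-strand clusters on a modified Illumina MiSeq flow-cell were annealed to 100 nM quencher-labelled ATP aptamer and imaged first in selection buffer, then after 15 min with 500 uM ATP at 22 °C. NaOH stripping and re-annealing separated each of five buffer/ATP cycles, and clusters outside 100-1000 RFU were excluded. The fluorescence ratio sums target-cycle Cy3 intensity over buffer-cycle Cy3 intensity per cluster and averages it per switch-domain sequence.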
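Also: ATP exposure 15 min at 22 °C before imaging.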

Row | Sequence | switch fluorescence ratio
1 | TTCCCGTTGA | 1.14 ± 0.027
2 | GGTCTCAGGT | 1.03 ± 0.023
3 | ACAGAGGGTG | 1.08 ± 0.095
4 | GTGGTCGGCA | 0.996 ± 0.011
5 | AGAATCGACT | 0.997 ± 0.014
6 | AAGCGCTTTT | 0.979 ± 0.058
7 | GAATAAGTCC | 1.04 ± 0.028
8 | CATTATTATT | 0.9975 ± 0.0058
9 | AACTTTTTTA | 0.964 ± 0.017
10 | TTCCATCGCC | 1.53 ± 0.14
11 | GCTATCATGG | 0.9727 ± 0.0076
12 | ATTGTGGGTT | 1 ± 0.021
13 | CAGGGTGCTA | 1 ± 0.075
14 | TCAGCAGGGG | 2.67 ± 1.9
15 | GAGTATTTTG | 0.953 ± 0.026
16 | CGCGATGTAC | 3.82 ± 0.15
17 | TTCAGGTCGT | 0.992 ± 0.052
18 | GTGTTGGAGG | 0.996 ± 0.017
19 | TGGGTGCACG | 0.996 ± 0.057
20 | CCGAAGTCCT | 1.25 ± 0.033
21 | TAGGGGTGTT | 1.06 ± 0.12
22 | AGTTAAGGGT | 0.9925 ± 0.0071
23 | ATGTATGGGT | 0.992 ± 0.036

Row | Sequence | switch fluorescence ratio
24 | TATAAATGAT | 1.06 ± 0.047
25 | AAGAGGGCGG | 0.991 ± 0.034
26 | ATCTGAATGG | 1.12 ± 0.17
27 | TAATGTGGGG | 0.9715 ± 0.0056
28 | TTTTAACGTG | 0.979 ± 0.021
29 | ATTAAGGAGG | 0.99014 ± 0.00011
30 | CGTTCGTTCG | 0.989 ± 0.015
31 | AAAATCAGCC | 1.07 ± 0.053
32 | GAGTACACGT | 0.9813 ± 0.0061
33 | CGGTATAATT | 0.999 ± 0.042
34 | AAGTGATGGG | 0.988 ± 0.045
35 | ACACGTACTT | 1.52 ± 0.065
36 | GGATCTTGTG | 1.01 ± 0.021
37 | TTGAGGGAGG | 1 ± 0.034
38 | AAGGCAATTT | 1.02 ± 0.048
39 | AGGTGGGGAC | 1.01 ± 0.014
40 | AATGAAAATG | 0.9804 ± 0.0089
41 | TATCCACATT | 1.02 ± 0.019
42 | TGGTTAGGGG | 1.06 ± 0.084
43 | TTTGCTTCGT | 1.04 ± 0.048
44 | GACTAACGGA | 1.19 ± 0.1
45 | CGTCGGAGGC | 0.986 ± 0.019
46 | CGTATAATGT | 0.996 ± 0.015

Row | Sequence | switch fluorescence ratio
47 | TCATATACGC | 1.1 ± 0.011
48 | GAAATTTTGC | 0.995 ± 0.033
49 | ACGGGGGGGC | 1.09 ± 0.06
50 | GGAGACTTTA | 1.006 ± 0.0056
51 | GAGGGCTGAG | 0.985 ± 0.02
52 | TAAAGGCTTG | 0.976 ± 0.034
53 | GCTTTTGCGG | 0.981 ± 0.045
54 | ATGGTAGGTA | 1 ± 0.031
55 | GAGGGGCGAT | 0.998 ± 0.013
56 | GGGCGGGGGA | 1.06 ± 0.079
57 | TGAGATTCCT | 1.09 ± 0.034
58 | CCTGAAGGCA | 1 ± 0.011
59 | AGCGAAGCTG | 1.01 ± 0.011
60 | CGAGGGATGT | 0.982 ± 0.034
61 | CGTGAGATTA | 0.9846 ± 0.0009
62 | TTGGGAGGGA | 1 ± 0.038
63 | AGCGATCGGT | 1.03 ± 0.014
64 | GACGAAAAAG | 0.982 ± 0.017
65 | ATGGGCTTTG | 0.9674 ± 0.0093
66 | TTATTCCCGA | 0.9791 ± 0.0095
67 | ATTGAAAGTG | 0.9859 ± 0.0074
68 | TACTGAGCAT | 1.24 ± 0.086
69 | TCCCCGACGT | 1.53 ± 0.22

Row | Sequence | switch fluorescence ratio
70 | TCTAATGGAA | 1.01 ± 0.018
71 | TTCGATTCGA | 0.961 ± 0.011
72 | TATTTAAAAA | 1.01 ± 0.035
73 | GGGGACGAGC | 0.999 ± 0.027
74 | AATGTAATTA | 1.01 ± 0.011
75 | AACAGGATGC | 1.027 ± 0.0039
76 | GAGACTATTT | 0.976 ± 0.056
77 | TAAATGGACG | 0.9669 ± 0.0095
78 | CATGCTTGGG | 0.999 ± 0.012
79 | TGACGGGCAC | 1.17 ± 0.036
80 | TCTTGATTTT | 1 ± 0.011
81 | TGCGACTTTG | 1.03 ± 0.018
82 | TGAGGATGTT | 0.9852 ± 0.0089
83 | GTGGGCGGGG | 0.979 ± 0.031
84 | TGTTGAGCTC | 0.9936 ± 0.0084
85 | TTGGAAGCTT | 1.23 ± 0.22
86 | GATTCTTGAG | 1.01 ± 0.032
87 | CTATTAAGTA | 0.9802 ± 0.0064
88 | CTAAAATTAA | 1.01 ± 0.031
89 | GCCGAAGTCG | 1.02 ± 0.025
90 | GGAATGGGGC | 0.993 ± 0.052
91 | TGGGATGTG | 0.9906 ± 0.0049
92 | AATTGGGGGA | 0.979 ± 0.031

Row | Sequence | switch fluorescence ratio
93 | AAAAACGGCT | 0.99 ± 0.017
94 | CGGGACATAG | 0.964 ± 0.026
95 | TGTTTATTTT | 0.982 ± 0.025
96 | GATCGTACAG | 1.04 ± 0.018
97 | AGCTTTGTC | 0.989 ± 0.043
98 | GCGCTGGGGG | 1.07 ± 0.081
99 | AGTTAGGCCT | 1.02 ± 0.039
100 | CCATGATTTG | 0.9922 ± 0.0042
101 | TTTCAGGACT | 0.996 ± 0.041
102 | CCAAATGGTG | 1.16 ± 0.021
103 | CCCGGGTTGT | 1.16 ± 0.12
104 | CTGGGCGTGC | 0.997 ± 0.03
105 | GCCGGCACTG | 1.002 ± 0.0064
106 | TATGGTTACG | 0.9997 ± 0.0022
107 | AAAGCTGAAT | 0.992 ± 0.0057
108 | GCGTCCACCA | 1.03 ± 0.067
109 | TTTTCAAATC | 1.016 ± 0.0075
110 | CGGTGGCTGC | 0.967 ± 0.011
111 | ATGGACGTTT | 0.967 ± 0.048
112 | CCGGAAGGGG | 1.06 ± 0.02
113 | ATTCAATTTT | 0.996 ± 0.051
114 | TTGCGTAGGC | 0.994 ± 0.034
115 | TTTGGGTAGG | 1.03 ± 0.062

Row | Sequence | switch fluorescence ratio
116 | AATTATAGTT | 0.99268 ± 5.5e-05
117 | AGGGAGATAG | 0.986 ± 0.016
118 | TTTGCCGGCG | 0.97337 ± 0.00069
119 | TTACCCATTT | 1.1 ± 0.085
120 | GGAAGATTCG | 0.984 ± 0.03
121 | CGATTATTAT | 0.975 ± 0.031
122 | TTTAGACGTG | 0.976 ± 0.012
123 | GGATATGGGT | 0.966 ± 0.011
124 | TTTGTTGCCT | 1.014 ± 0.0088
125 | CGAACGCCTG | 1.1 ± 0.036
126 | GGGATTAGAT | 0.982 ± 0.013
127 | TTTTCGTATG | 1 ± 0.053
128 | GTGAAAGTCG | 0.9929 ± 0.0024
129 | ATCGTTTACG | 0.994 ± 0.036
130 | TTTGGGGGCA | 0.989 ± 0.041
131 | GGGGAAAGCG | 1 ± 0.026
132 | TGTGAAAAAG | 0.976 ± 0.053
133 | AGTCCCAAGG | 1.13 ± 0.2
134 | ACATTATGGA | 1.035 ± 0.0081
135 | CGGTGTGTAG | 0.983 ± 0.062
136 | GGTTAATAGG | 0.99 ± 0.013
137 | CTGGGGTAGG | 1.04 ± 0.018
138 | ATGGAGTTTG | 0.9901 ± 0.0057

Row | Sequence | switch fluorescence ratio
139 | CCGGGATGGG | 1.03 ± 0.022
140 | TCGGAGTAG | 1.04 ± 0.031
141 | GCTGTCTATC | 1.01 ± 0.027
142 | ACAGGGGATG | 1.08 ± 0.16
143 | AAACACAGGG | 1.07 ± 0.063
144 | TAGTTACTGG | 1.05 ± 0.021
145 | AGGGCTTGTG | 0.987 ± 0.012
146 | TCGGAGGCCT | 1.04 ± 0.04
147 | GGCCCTGCGA | 1.06 ± 0.056
148 | GGGCCGGTTG | 0.995 ± 0.017
149 | TTTGAGGGTG | 1.07 ± 0.065
150 | AAGGGTAGGC | 1.03 ± 0.042
151 | TGGCCCGGGC | 1.02 ± 0.017
152 | CTAAATTCGT | 0.987 ± 0.08
153 | TAATTCGTCG | 0.997 ± 0.018
154 | AAAATCTGCG | 1.03 ± 0.041
155 | TTTCTTAGTG | 0.9622 ± 0.0086
156 | CCCTGTTCGC | 1.03 ± 0.041
157 | AATTTTGGGA | 0.994 ± 0.023

Source: the supplement of paper PMC10126150
